Experimental data as given in patent US7988958B2, “Enterococcus and Streptococcus strains and bacteriocins” (The United States of America as represented by the …, priority 2005, dated 2011).
Like-named read-outs stand apart in the source and are kept apart here.

Tests used:
E. coli O157:H7 lab. 39 = assay: MIC by spot test; format: cell-based
Sh. dysenteriae = assay: MIC by spot test; format: cell-based
L. monocytogenes 9-72 = assay: MIC by spot test; format: cell-based
S. enteritidis 204 = assay: Spot test; format: cell-based; conditions: for Inhibiting activity in Spot Test: crude antimicrobial preparation (CAP); for Inhibiting Activity, Spot Test: purified bacteriocin
Citrobacter freundi = assay: MIC by spot test; format: cell-based
[1] = Isoelectric focusing (pI); format: physicochemical; conditions: for pI of the band with antimicrobial activity: pure bacteriocin, gel overlaid with Campylobacter jejuni
E. coli O157:H7 OD-3 = assay: MIC by spot test; format: cell-based
Campylobacter jejuni = assay: Antagonistic activity of products purified by Methods A and B; format: cell-based; parameters: Specific Activity UE/ml: unit not given here
S. typhimurium 320 = assay: MIC by spot test; format: cell-based
E. coli O157:H7 904 = assay: Spot test; format: cell-based; conditions: for Inhibiting activity in Spot Test: crude antimicrobial preparation (CAP), E. coli O157:H7 904; for Inhibiting Activity, Spot Test: purified bacteriocin, E. coli O157:H7
S. enteritidis 1 = assay: MIC by spot test; format: cell-based
S. enteritidis 4 = assay: MIC by spot test; format: cell-based
E. coli O157:H7 G-3 = assay: MIC by spot test; format: cell-based
Campylobacter spp. P-24 = assay: MIC by agar diffusion; format: cell-based; conditions: Campylobacter spp. strain P-24
Protocol: (§1) The susceptibility of Campylobacter spp. to purified preparations of bacteriocins 760 and E50-52 was determined using strains isolated from broiler chicks as described above in Example 1. Antagonistic activity of the bacteriocins was assessed on the basis of minimum inhibitory concentrations (MICs) which were determined by agar diffusion. […] All the tested bacteriocins are highly antagonistic to the Campylobacter spp. strains.

Campylobacter spp. G-1 = assay: MIC by agar diffusion; format: cell-based; conditions: Campylobacter spp. strain G-1
Protocol: as §1

Campylobacter spp. P-32 = assay: MIC by agar diffusion; format: cell-based; conditions: Campylobacter spp. strain P-32
Protocol: as §1

Campylobacter spp. P-28 = assay: MIC by agar diffusion; format: cell-based; conditions: Campylobacter spp. strain P-28
Protocol: as §1

Campylobacter spp. F-1 = assay: MIC by agar diffusion; format: cell-based; conditions: Campylobacter spp. strain F-1
Protocol: as §1

Campylobacter spp. P-2 = assay: MIC by agar diffusion; format: cell-based; conditions: Campylobacter spp. strain P-2
Protocol: as §1

[2] = tested on: Campylobacter spp. Ind18/2; assay: MIC by agar diffusion; format: cell-based; conditions: Campylobacter spp. strain Ind18/2
Protocol: as §1

Campylobacter spp. P-27 = assay: MIC by agar diffusion; format: cell-based; conditions: Campylobacter spp. strain P-27
Protocol: as §1

Campylobacter spp. G-2 = assay: MIC by agar diffusion; format: cell-based; conditions: Campylobacter spp. strain G-2
Protocol: as §1

Campylobacter spp. B-3 = assay: MIC by agar diffusion; format: cell-based; conditions: Campylobacter spp. strain B-3
Protocol: as §1

Campylobacter spp. K-10 = assay: MIC by agar diffusion; format: cell-based; conditions: Campylobacter spp. strain K-10
Protocol: as §1

Campylobacter spp. P-31 = assay: MIC by agar diffusion; format: cell-based; conditions: Campylobacter spp. strain P-31
Protocol: as §1

Campylobacter spp. Cez-4 = assay: MIC by agar diffusion; format: cell-based; conditions: Campylobacter spp. strain Cez-4
Protocol: as §1

Campylobacter spp. P-21 = assay: MIC by agar diffusion; format: cell-based; conditions: Campylobacter spp. strain P-21
Protocol: as §1

Campylobacter spp. I/U-1 = assay: MIC by agar diffusion; format: cell-based; conditions: Campylobacter spp. strain I/U-1
Protocol: as §1

Y. pseudotuberculosis = format: cell-based
C. jejuni NCTC 11168 = assay: Thermostability and effect of pH on bacteriocin activity (spot test); format: physicochemical, Campylobacter jejuni; conditions: for Antimicrobial activity after treatment: heating to about 90° C.
[3] = tested on: Staphylococcus epidermidis; assay: MIC by spot test; format: cell-based

Bacteriocin 50-52: bacteriocin produced by Enterococcus durans/faecium/hirae NRRL B-30746 (strain 50-52); amino acid sequence SEQ ID NO 1 (TTKNYGNGVCNSVNWCQCGNVWASCNLATGCAAWLCKLA; listed as Enterococcus faecium)
MICs (E. coli O157:H7 lab. 39): 0.1 µg/mL | MICs (Sh. dysenteriae): 0.4 µg/mL | MICs (L. monocytogenes 9-72): 0.2 µg/mL | Inhibiting activity in Spot Test (S. enteritidis 204): 12,800 AU/ml | Inhibiting Activity, Spot Test (S. enteritidis 204): 12,800 AU/ml | MICs (Citrobacter freundi): 0.1 µg/mL | IEF (pI) ([1]; cultivation with inducer strain): 8.4 | IEF (pI) ([1]; cultivation without inducer strain): 8.4 | IEF (pI) ([1]; isolated by Method A): 8.4 | IEF (pI) ([1]; isolated by Method B): 8.4 | pI of the band with antimicrobial activity [1]: about 8.4 | MICs (E. coli O157:H7 OD-3): 0.1 µg/mL | Activity UE/ml (Campylobacter jejuni; isolated by Method A): 6,400 UE/ml | Specific Activity UE/ml (Campylobacter jejuni; isolated by Method A): 85,333 | Activity UE/ml (Campylobacter jejuni; isolated by Method B): 12,800 UE/ml | Specific Activity UE/ml (Campylobacter jejuni; isolated by Method B): 320,000 | MICs (S. typhimurium 320): 0.1 µg/mL | Inhibiting activity in Spot Test (E. coli O157:H7 904): 3,200 AU/ml | Inhibiting Activity, Spot Test (E. coli O157:H7 904): 6,400 AU/ml | MICs (S. enteritidis 1): 0.1 µg/mL | MICs (S. enteritidis 4): 0.1 µg/mL | MICs (E. coli O157:H7 G-3): 0.1 µg/mL | MICs (Campylobacter spp. P-24): 0.05 µg/mL | MICs (Campylobacter spp. G-1): 0.05 µg/mL | MICs (Campylobacter spp. P-32): 0.1 µg/mL | MICs (Campylobacter spp. P-28): 0.1 µg/mL | MICs (Campylobacter spp. F-1): 0.1 µg/mL | MICs (Campylobacter spp. P-2): 0.05 µg/mL | MICs [2]: 0.05 µg/mL | MICs (Campylobacter spp. P-27): 0.1 µg/mL | MICs (Campylobacter spp. G-2): 0.1 µg/mL | MICs (Campylobacter spp. B-3): 0.05 µg/mL | MICs (Campylobacter spp. K-10): 0.05 µg/mL | MICs (Campylobacter spp. P-31): 0.1 µg/mL | MICs (Campylobacter spp. Cez-4): 0.1 µg/mL | MICs (Campylobacter spp. P-21): 0.05 µg/mL | MICs (Campylobacter spp. I/U-1): 0.05 µg/mL | MICs (Y. pseudotuberculosis; Y. pseudotuberculosis): 0.4 µg/mL | Stability at different values of pH (C. jejuni NCTC 11168; about pH 10): became inactive | Antimicrobial activity after treatment (C. jejuni NCTC 11168): retained it | Stability at different values of pH (C. jejuni NCTC 11168; pH about 3.0 to about 9.0): stable | MICs ([3]; Staphylococcus epidermis): 3.2 µg/mL

B1: Bacteriocin 760: bacteriocin produced by Enterococcus durans/faecium/hirae NRRL B-30745 (strain 760); amino acid sequence SEQ ID NO 2 (protein, listed as Streptococcus cricetus)
chain: NRWYCNSAAGGVGGAAVCGLAGYVGEAKENIAGEVRKGWGMAGGFTHNKACKSFPGSGWASG
MIC (E. coli O157:H7 lab. 39): 1.6 mg/mL | MIC (Sh. dysenteriae): 0.1 mg/mL | MIC (L. monocytogenes 9-72): 0.1 mg/mL | Inhibiting activity in Spot Test (S. enteritidis 204): 12,800 AU/ml | Inhibiting Activity, Spot Test (S. enteritidis 204): 12,800 AU/ml | MIC (Citrobacter freundi): 1.6 mg/mL | IEF (pI) [1]: 9.5 | IEF (pI) ([1]; isolated by Method A): 9.5 | IEF (pI) ([1]; isolated by Method B): 9.5 | pI of the band with antimicrobial activity [1]: about 9.5 | MIC (E. coli O157:H7 OD-3): 1.6 mg/mL | Activity UE/ml (Campylobacter jejuni; isolated by Method A): 12,800 UE/ml | Specific Activity UE/ml (Campylobacter jejuni; isolated by Method A): 71,111 | Activity UE/ml (Campylobacter jejuni; isolated by Method B): 51,200 UE/ml | Specific Activity UE/ml (Campylobacter jejuni; isolated by Method B): 284,444 | MIC (S. typhimurium 320): 0.2 mg/mL | Inhibiting activity in Spot Test (E. coli O157:H7 904): 12,800 AU/ml | Inhibiting Activity, Spot Test (E. coli O157:H7 904): 12,800 AU/ml | MIC (S. enteritidis 1): 0.2 mg/mL | MIC (S. enteritidis 4): 0.4 mg/mL | MIC (E. coli O157:H7 G-3): 1.6 mg/mL | MICs (Campylobacter spp. P-24): 0.05 µg/mL | MICs (Campylobacter spp. G-1): 0.05 µg/mL | MICs (Campylobacter spp. P-32): 0.05 µg/mL | MICs (Campylobacter spp. P-28): 0.05 µg/mL | MICs (Campylobacter spp. F-1): 0.05 µg/mL | MICs (Campylobacter spp. P-2): 0.05 µg/mL | MICs [2]: 0.05 µg/mL | MICs (Campylobacter spp. P-27): 0.05 µg/mL | MICs (Campylobacter spp. G-2): 0.05 µg/mL | MICs (Campylobacter spp. B-3): 0.05 µg/mL | MICs (Campylobacter spp. K-10): 0.05 µg/mL | MICs (Campylobacter spp. P-31): 0.05 µg/mL | MICs (Campylobacter spp. Cez-4): 0.1 µg/mL | MICs (Campylobacter spp. P-21): 0.1 µg/mL | MICs (Campylobacter spp. I/U-1): 0.05 µg/mL | MIC (Y. pseudotuberculosis): 3.2 mg/mL | Stability at different values of pH (C. jejuni NCTC 11168; about pH 10): became inactive | Antimicrobial activity after treatment (C. jejuni NCTC 11168): retained it | Stability at different values of pH (C. jejuni NCTC 11168; pH about 3.0 to about 9.0): stable | MIC ([3]; Staphylococcus epidermidis): 1.6 mg/mL
